Assay results taken from article PMC3516556.

Target: FLAG-GluK2 (UniProt P42260)
Experiment: co-IP; COS-7 cells transfected with combinations of FLAG-GluK2, Neto2 or Neto2Δ7 and GRIP(PDZ4-7)-myc; lysates immunoprecipitated with an anti-GluK2 antibody, western blot

Chain of UniProt P42260 (P42260 32-908): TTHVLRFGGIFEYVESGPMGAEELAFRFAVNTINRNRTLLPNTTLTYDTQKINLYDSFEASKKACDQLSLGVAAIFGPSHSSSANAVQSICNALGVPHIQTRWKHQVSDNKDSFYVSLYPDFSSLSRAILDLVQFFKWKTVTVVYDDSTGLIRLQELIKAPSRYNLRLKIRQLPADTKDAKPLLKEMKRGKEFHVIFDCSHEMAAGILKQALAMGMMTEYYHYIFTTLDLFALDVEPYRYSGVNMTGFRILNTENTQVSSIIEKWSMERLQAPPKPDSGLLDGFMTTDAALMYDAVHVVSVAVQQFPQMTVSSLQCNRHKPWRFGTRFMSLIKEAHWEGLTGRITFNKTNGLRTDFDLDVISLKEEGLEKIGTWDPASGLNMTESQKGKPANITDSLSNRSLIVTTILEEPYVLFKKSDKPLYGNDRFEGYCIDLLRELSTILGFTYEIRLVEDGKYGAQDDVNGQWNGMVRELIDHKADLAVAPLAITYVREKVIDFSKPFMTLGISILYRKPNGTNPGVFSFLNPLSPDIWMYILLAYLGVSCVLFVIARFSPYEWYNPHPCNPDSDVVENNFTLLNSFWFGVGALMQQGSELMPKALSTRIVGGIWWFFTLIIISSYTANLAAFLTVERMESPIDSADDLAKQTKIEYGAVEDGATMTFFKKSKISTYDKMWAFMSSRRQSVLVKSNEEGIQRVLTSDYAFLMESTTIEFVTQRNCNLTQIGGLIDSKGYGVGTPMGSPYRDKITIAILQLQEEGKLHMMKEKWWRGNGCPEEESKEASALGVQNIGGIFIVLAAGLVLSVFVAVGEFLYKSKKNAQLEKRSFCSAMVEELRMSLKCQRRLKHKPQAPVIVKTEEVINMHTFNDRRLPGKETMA

amount coimmunoprecipitated with GluK2 when Neto2 is coexpressed, percent of signal in the absence of Neto2 (% of signal in the absence of Neto2): 250
amount coimmunoprecipitated with GluK2 when Neto2Δ7 is coexpressed, percent of signal in the absence of Neto2 (% of signal in the absence of Neto2): 103
Substance: C-terminal myc-tagged GRIP(PDZ4-7) (domain or fragment)
